Results from patent US20120172293A1 (Takeda / Millennium, published 2012).
Starred links: 1 amine or outer side, 2 acyl side, 3 side chain; linkers in the order of their positions; H or OH if unused. Positions of bridges follow the written chain, without caps; N, C: chain ends. Non-standard residues stand in square brackets, D forms with d. No end group written: not given here. Phe(3R-OH) = O=C([C@@H](N[*:1])[C@H](O[*:3])c1ccccc1)[*:2]; Cha = N[C@@H](CC1CCCCC1)C(=O)O; dCha = N[C@H](CC1CCCCC1)C(=O)O; Phg = N[C@H](C(=O)O)c1ccccc1; 4Amb = NCc1ccc(C(=O)O)cc1; Nle = CCCC[C@H](N)C(=O)O; Aib = CC(C)(N)C(=O)O

Assays:
[1] = molecular target: T1, human Y2 receptor (human, UniProt P49146 1-381); test: RBA: [125I]-PYY displacement, hY2R/CHO membranes
T1 construct: whole, on cells; used as membrane fraction of hY2R/CHO cells; also called human NPY2R; hY2R
T1 sequence (looked up): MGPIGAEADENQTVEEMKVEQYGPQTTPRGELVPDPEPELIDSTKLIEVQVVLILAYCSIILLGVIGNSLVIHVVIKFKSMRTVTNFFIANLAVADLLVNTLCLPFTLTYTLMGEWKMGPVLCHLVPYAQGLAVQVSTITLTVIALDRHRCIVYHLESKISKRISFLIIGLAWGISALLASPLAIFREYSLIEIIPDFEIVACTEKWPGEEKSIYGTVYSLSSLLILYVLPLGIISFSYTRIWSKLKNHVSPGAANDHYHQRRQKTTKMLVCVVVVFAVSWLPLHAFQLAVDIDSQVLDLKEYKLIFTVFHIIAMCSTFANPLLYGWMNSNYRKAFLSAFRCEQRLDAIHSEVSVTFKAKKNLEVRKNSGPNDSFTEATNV
Summary of the method: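 Bound radioligand was collected by filtration on PEI-treated GF/C filters, washed with Tris/MgCl₂/NaCl/CHAPS buffer pH 7.4, and counted by scintillation; IC₅₀ values were calculated.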

[2] = molecular target: T1, human Y2 receptor; test: cell-based or functional assay

B1: 4-Aminomethylbenzoyl-[Ala26, Ile28, Nle31]-PYY(25-36) (peptide)
peptide: [4Amb]RAYINL[Nle]TRQRY-NH2
modifications: N-terminus assumed
SMILES: CCCC[C@H](NC(=O)[C@H](CC(C)C)NC(=O)[C@H](CC(N)=O)NC(=O)[C@@H](NC(=O)[C@H](Cc1ccc(O)cc1)NC(=O)[C@H](C)NC(=O)[C@H](CCCNC(=N)N)NC(=O)c1ccc(CN)cc1)[C@@H](C)CC)C(=O)N[C@H](C(=O)N[C@@H](CCCNC(=N)N)C(=O)N[C@@H](CCC(N)=O)C(=O)N[C@@H](CCCNC(=N)N)C(=O)N[C@@H](Cc1ccc(O)cc1)C(N)=O)[C@@H](C)O
notes: also called compound No. 42
IC50 Ratio (vs PYY(3-36)) [1]: 10 ratio | GBA EC50 Ratio (vs PYY(3-36)), [35S]GTPγS [2]: 5.7 ratio

B2: 4-Aminomethylbenzoyl-[Ala26, Ile28, Phg31]-PYY(25-36) (peptide)
peptide: [4Amb]RAYINL[Phg]TRQRY-NH2
modifications: N-terminus assumed
SMILES: CC[C@H](C)[C@H](NC(=O)[C@H](Cc1ccc(O)cc1)NC(=O)[C@H](C)NC(=O)[C@H](CCCNC(=N)N)NC(=O)c1ccc(CN)cc1)C(=O)N[C@@H](CC(N)=O)C(=O)N[C@@H](CC(C)C)C(=O)N[C@H](C(=O)N[C@H](C(=O)N[C@@H](CCCNC(=N)N)C(=O)N[C@@H](CCC(N)=O)C(=O)N[C@@H](CCCNC(=N)N)C(=O)N[C@@H](Cc1ccc(O)cc1)C(N)=O)[C@@H](C)O)c1ccccc1
notes: also called compound No. 40
IC50 Ratio (vs PYY(3-36)) [1]: 71 ratio | GBA EC50 Ratio (vs PYY(3-36)), [35S]GTPγS [2]: 27 ratio

RYYASLRAYINLITRQRY-NH2 (also called compound No. 2) [[Ala26, Ile28,31]-PYY(19-36)]
IC50 Ratio (vs PYY(3-36)) [1]: 4.9 ratio | GBA EC50 Ratio (vs PYY(3-36)), [35S]GTPγS [2]: 2.1 ratio

B3: Ac-[D-Pro24, Cha27,28, Aib31, threo-PhSer36]-PYY(23-36) (peptide)
peptide: Ac-S[dP]RH[Cha][Cha]NL[Aib]TRQR[Phe(3R-OH)]-NH2
SMILES: CC(=O)N[C@@H](CO)C(=O)N1CCC[C@@H]1C(=O)N[C@@H](CCCNC(=N)N)C(=O)N[C@@H](Cc1c[nH]cn1)C(=O)N[C@@H](CC1CCCCC1)C(=O)N[C@@H](CC1CCCCC1)C(=O)N[C@@H](CC(N)=O)C(=O)N[C@@H](CC(C)C)C(=O)NC(C)(C)C(=O)N[C@H](C(=O)N[C@@H](CCCNC(=N)N)C(=O)N[C@@H](CCC(N)=O)C(=O)N[C@@H](CCCNC(=N)N)C(=O)N[C@H](C(N)=O)[C@H](O)c1ccccc1)[C@@H](C)O
notes: also called compound No. 200
IC50 Ratio (vs PYY(3-36)) [1]: 16 ratio | GBA EC50 Ratio (vs PYY(3-36)), [35S]GTPγS [2]: 10 ratio

B4: [D-Arg23, Ala26, Ile28,31]-PYY(23-36) (peptide)
peptide: [dR]LRAYINLITRQRY-NH2
modifications: N-terminus assumed
SMILES: CC[C@H](C)[C@H](NC(=O)[C@H](Cc1ccc(O)cc1)NC(=O)[C@H](C)NC(=O)[C@H](CCCNC(=N)N)NC(=O)[C@H](CC(C)C)NC(=O)[C@H](N)CCCNC(=N)N)C(=O)N[C@@H](CC(N)=O)C(=O)N[C@@H](CC(C)C)C(=O)N[C@H](C(=O)N[C@H](C(=O)N[C@@H](CCCNC(=N)N)C(=O)N[C@@H](CCC(N)=O)C(=O)N[C@@H](CCCNC(=N)N)C(=O)N[C@@H](Cc1ccc(O)cc1)C(N)=O)[C@@H](C)O)[C@@H](C)CC
notes: also called compound No. 27
IC50 Ratio (vs PYY(3-36)) [1]: 4.5 ratio | GBA EC50 Ratio (vs PYY(3-36)), [35S]GTPγS [2]: 3.6 ratio

B5: cyclo(28-32)-4-Aminomethylbenzoyl-[Lys28, Ile31, Glu32]-PYY(25-36) (peptide)
peptide: [4Amb]RHYKNLIERQRY-NH2
modifications: lactam 5-9; N-terminus assumed
SMILES: CC[C@H](C)[C@@H]1NC(=O)[C@H](CC(C)C)NC(=O)[C@H](CC(N)=O)NC(=O)[C@@H](NC(=O)[C@H](Cc2ccc(O)cc2)NC(=O)[C@H](Cc2c[nH]cn2)NC(=O)[C@H](CCCNC(=N)N)NC(=O)c2ccc(CN)cc2)CCCCNC(=O)CC[C@@H](C(=O)N[C@@H](CCCNC(=N)N)C(=O)N[C@@H](CCC(N)=O)C(=O)N[C@@H](CCCNC(=N)N)C(=O)N[C@@H](Cc2ccc(O)cc2)C(N)=O)NC1=O
notes: also called compound No. 26
IC50 Ratio (vs PYY(3-36)) [1]: 18 ratio | GBA EC50 Ratio (vs PYY(3-36)), [35S]GTPγS [2]: 11 ratio

B6: Ac-[D-Phe24, Ala26, Ile28,31]-PYY(24-36) (peptide)
peptide: Ac-[dF]RAYINLITRQRY-NH2
SMILES: CC[C@H](C)[C@H](NC(=O)[C@H](Cc1ccc(O)cc1)NC(=O)[C@H](C)NC(=O)[C@H](CCCNC(=N)N)NC(=O)[C@@H](Cc1ccccc1)NC(C)=O)C(=O)N[C@@H](CC(N)=O)C(=O)N[C@@H](CC(C)C)C(=O)N[C@H](C(=O)N[C@H](C(=O)N[C@@H](CCCNC(=N)N)C(=O)N[C@@H](CCC(N)=O)C(=O)N[C@@H](CCCNC(=N)N)C(=O)N[C@@H](Cc1ccc(O)cc1)C(N)=O)[C@@H](C)O)[C@@H](C)CC
notes: also called compound No. 35
IC50 Ratio (vs PYY(3-36)) [1]: 14 ratio | GBA EC50 Ratio (vs PYY(3-36)), [35S]GTPγS [2]: 8.7 ratio

B7: cyclo(27-31)-4-Aminomethylbenzoyl-[Glu27, Ile28, Lys31]-PYY(25-36) (peptide)
peptide: [4Amb]RHEINLKTRQRY-NH2
modifications: lactam 4-8; N-terminus assumed
SMILES: CC[C@H](C)[C@@H]1NC(=O)[C@@H](NC(=O)[C@H](Cc2c[nH]cn2)NC(=O)[C@H](CCCNC(=N)N)NC(=O)c2ccc(CN)cc2)CCC(=O)NCCCC[C@@H](C(=O)N[C@H](C(=O)N[C@@H](CCCNC(=N)N)C(=O)N[C@@H](CCC(N)=O)C(=O)N[C@@H](CCCNC(=N)N)C(=O)N[C@@H](Cc2ccc(O)cc2)C(N)=O)[C@@H](C)O)NC(=O)[C@H](CC(C)C)NC(=O)[C@H](CC(N)=O)NC1=O
notes: also called compound No. 25
IC50 Ratio (vs PYY(3-36)) [1]: 30 ratio | GBA EC50 Ratio (vs PYY(3-36)), [35S]GTPγS [2]: 16 ratio

B8: 4-Aminomethylbenzoyl-[Ala26, Ile28, Cha31]-PYY(25-36) (peptide)
peptide: [4Amb]RAYINL[Cha]TRQRY-NH2
modifications: N-terminus assumed
SMILES: CC[C@H](C)[C@H](NC(=O)[C@H](Cc1ccc(O)cc1)NC(=O)[C@H](C)NC(=O)[C@H](CCCNC(=N)N)NC(=O)c1ccc(CN)cc1)C(=O)N[C@@H](CC(N)=O)C(=O)N[C@@H](CC(C)C)C(=O)N[C@@H](CC1CCCCC1)C(=O)N[C@H](C(=O)N[C@@H](CCCNC(=N)N)C(=O)N[C@@H](CCC(N)=O)C(=O)N[C@@H](CCCNC(=N)N)C(=O)N[C@@H](Cc1ccc(O)cc1)C(N)=O)[C@@H](C)O
notes: also called compound No. 41
IC50 Ratio (vs PYY(3-36)) [1]: 15 ratio | GBA EC50 Ratio (vs PYY(3-36)), [35S]GTPγS [2]: 8.7 ratio

{4‑(((imino(octylamino)methyl)amino)methyl)benzoyl}-RAYINLITRQRY-NH2 (also called compound No. 28) [4-({[imino(octylamino)methyl]amino}methyl)benzoyl-[Ala26, Ile28,31]-PYY(25-36)]
IC50 Ratio (vs PYY(3-36)) [1]: 14 ratio | GBA EC50 Ratio (vs PYY(3-36)), [35S]GTPγS [2]: 12 ratio

B9: 4-Aminomethylbenzoyl-[Ala26, Nle28, Ile31]-PYY(25-36) (peptide)
peptide: [4Amb]RAY[Nle]NLITRQRY-NH2
modifications: N-terminus assumed
SMILES: CCCC[C@H](NC(=O)[C@H](Cc1ccc(O)cc1)NC(=O)[C@H](C)NC(=O)[C@H](CCCNC(=N)N)NC(=O)c1ccc(CN)cc1)C(=O)N[C@@H](CC(N)=O)C(=O)N[C@@H](CC(C)C)C(=O)N[C@H](C(=O)N[C@H](C(=O)N[C@@H](CCCNC(=N)N)C(=O)N[C@@H](CCC(N)=O)C(=O)N[C@@H](CCCNC(=N)N)C(=O)N[C@@H](Cc1ccc(O)cc1)C(N)=O)[C@@H](C)O)[C@@H](C)CC
notes: also called compound No. 21
IC50 Ratio (vs PYY(3-36)) [1]: 4.1 ratio | GBA EC50 Ratio (vs PYY(3-36)), [35S]GTPγS [2]: 3.6 ratio

Ac-FRAYINLITRQRY-NH2 (also called compound No. 34) [Ac-[Phe24, Ala26, Ile28,31]-PYY(24-36)]
IC50 Ratio (vs PYY(3-36)) [1]: 25 ratio | GBA EC50 Ratio (vs PYY(3-36)), [35S]GTPγS [2]: 14 ratio

B10: [D-Leu24, Ala26, Ile28,31]-PYY(24-36) (peptide)
peptide: [dL]RAYINLITRQRY-NH2
modifications: N-terminus assumed
SMILES: CC[C@H](C)[C@H](NC(=O)[C@H](Cc1ccc(O)cc1)NC(=O)[C@H](C)NC(=O)[C@H](CCCNC(=N)N)NC(=O)[C@H](N)CC(C)C)C(=O)N[C@@H](CC(N)=O)C(=O)N[C@@H](CC(C)C)C(=O)N[C@H](C(=O)N[C@H](C(=O)N[C@@H](CCCNC(=N)N)C(=O)N[C@@H](CCC(N)=O)C(=O)N[C@@H](CCCNC(=N)N)C(=O)N[C@@H](Cc1ccc(O)cc1)C(N)=O)[C@@H](C)O)[C@@H](C)CC
notes: also called compound No. 24
IC50 Ratio (vs PYY(3-36)) [1]: 14 ratio | GBA EC50 Ratio (vs PYY(3-36)), [35S]GTPγS [2]: 9.4 ratio

Ac-PRAYINLITRQRY-NH2 (also called compound No. 38) [Ac-[Pro24, Ala26, Ile28,31]-PYY(24-36)]
IC50 Ratio (vs PYY(3-36)) [1]: 52 ratio | GBA EC50 Ratio (vs PYY(3-36)), [35S]GTPγS [2]: 26 ratio

B11: Ac-[Cha24, Ala26, Ile28,31]-PYY(24-36) (peptide)
peptide: Ac-[Cha]RAYINLITRQRY-NH2
SMILES: CC[C@H](C)[C@H](NC(=O)[C@H](Cc1ccc(O)cc1)NC(=O)[C@H](C)NC(=O)[C@H](CCCNC(=N)N)NC(=O)[C@H](CC1CCCCC1)NC(C)=O)C(=O)N[C@@H](CC(N)=O)C(=O)N[C@@H](CC(C)C)C(=O)N[C@H](C(=O)N[C@H](C(=O)N[C@@H](CCCNC(=N)N)C(=O)N[C@@H](CCC(N)=O)C(=O)N[C@@H](CCCNC(=N)N)C(=O)N[C@@H](Cc1ccc(O)cc1)C(N)=O)[C@@H](C)O)[C@@H](C)CC
notes: also called compound No. 36
IC50 Ratio (vs PYY(3-36)) [1]: 17 ratio | GBA EC50 Ratio (vs PYY(3-36)), [35S]GTPγS [2]: 13 ratio

B12: Ac-[D-Cha24, Ala26, Ile28,31]-PYY(24-36) (peptide)
peptide: Ac-[dCha]RAYINLITRQRY-NH2
SMILES: CC[C@H](C)[C@H](NC(=O)[C@H](Cc1ccc(O)cc1)NC(=O)[C@H](C)NC(=O)[C@H](CCCNC(=N)N)NC(=O)[C@@H](CC1CCCCC1)NC(C)=O)C(=O)N[C@@H](CC(N)=O)C(=O)N[C@@H](CC(C)C)C(=O)N[C@H](C(=O)N[C@H](C(=O)N[C@@H](CCCNC(=N)N)C(=O)N[C@@H](CCC(N)=O)C(=O)N[C@@H](CCCNC(=N)N)C(=O)N[C@@H](Cc1ccc(O)cc1)C(N)=O)[C@@H](C)O)[C@@H](C)CC
notes: also called compound No. 37
IC50 Ratio (vs PYY(3-36)) [1]: 7.6 ratio | GBA EC50 Ratio (vs PYY(3-36)), [35S]GTPγS [2]: 4.6 ratio
